US6683057

Target: Gβγ (βγ subunit of the heterotrimeric G protein) (rabbit)
Assay: cell-based or functional assay

- EGF activation of MAP kinase in cultured vascular smooth muscle cells (versus empty virus treated cells): -7%
- LPA activation of MAP kinase in cultured vascular smooth muscle cells (versus empty virus treated cells): -58%
- basal MAP kinase activity in cultured vascular smooth muscle cells (versus empty virus treated cells): 18%
- serum activation of MAP kinase in cultured vascular smooth muscle cells (versus empty virus treated cells): -38%
Substance: βARKCT (βARK-1-(495-689) polypeptide; Met-Gly495-Leu689 of bovine β-adrenergic receptor kinase-1) (from UniProt P21146 495-689)
